Laboratory results: patent US20090099826A1 (published 2009)

T1: BIR3 domain of XIAP (residues 252-350), wild type
T1 chain: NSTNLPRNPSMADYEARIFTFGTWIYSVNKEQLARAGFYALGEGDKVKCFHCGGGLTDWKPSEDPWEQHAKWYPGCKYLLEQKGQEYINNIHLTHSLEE

B1: caspase-9, wild-type, processed catalytic domain (residues 139-315 and 316-416) (protein)
chain 1: VGALESLRGNADLAYILSMEPCGHCLIINNVNFCRESGLRTRTGSNIDCEKLRRRFSSLHFMVEVKGDLTAKKMVLALLELAQQDHGALDCCVVVILSHGCQASHLQFPGAVYGTDGCPVSVEKIVNIFNGTSCPSLGGKPKLFFIQACGGEQKDHGFEVASTSPEDESPGSNPEPD
chain 2: ATPFQEGLRTFDQLDAISSLPTPSDIFVSYSTFPGFVSWRDPKSGSWYVETLDDIFEQWAHSEDLQSLLLRVANAVSVKGIYKQMPGCFNFLRKKLFFKTS
B2: Procaspase-9 zymogen (residues 139-416) (enzyme, mammalian, UniProt P55211 139-416, looked up)
chain: VGALESLRGNADLAYILSMEPCGHCLIINNVNFCRESGLRTRTGSNIDCEKLRRRFSSLHFMVEVKGDLTAKKMVLALLELAQQDHGALDCCVVVILSHGCQASHLQFPGAVYGTDGCPVSVEKIVNIFNGTSCPSLGGKPKLFFIQACGGEQKDHGFEVASTSPEDESPGSNPEPDATPFQEGLRTFDQLDAISSLPTPSDIFVSYSTFPGFVSWRDPKSGSWYVETLDDIFEQWAHSEDLQSLLLRVANAVSVKGIYKQMPGCFNFLRKKLFFKTS
notes: range 139-416; Used here for self-association; also called unprocessed procaspase-9 zymogen

What was measured:
[1] = biological target: T1, BIR3 domain of XIAP (residues 252-350), …
[2] = biological target: XIAP-BIR3 point mutant P325G
[3] = biological target: XIAP-BIR3 point mutant L344A
[4] = biological target: XIAP-BIR3 point mutant G326E
[5] = biological target: XIAP-BIR3 point mutant H343A
[6] = biological target: the molecule itself; test: sedimentation equilibrium, analytical ultracentrifugation (self-association)
Experimental: To accurately determine the basal state of caspase-9 in solution, the molecular weight of caspase-9 was examined by sedimentation equilibrium analysis using analytical ultra-centrifugation (Table 2). […] In addition, this analysis confirms that the XIAP-BIR3 domain forms a stable hetero-dimer with the caspase-9 monomer (Table 2).
Analytical ultracentrifugation. Protein samples were prepared in 10 mM Tris-HCl, pH 8.0, 100 mM NaCl, and 2 mm DTT. All sedimentation equilibrium experiments were carried out at 4° C. using a Beckman Optima XL-A analytical ultracentrifuge equipped with an An60 Ti rotor and using six-channel, 12 mm path length, charcoal-filled Epon centerpieces and quartz windows. Data were collected at four rotor speeds (10,000, 15,000, 20,000, and 25,000 rpm) and represent the average of twenty scans using a scan step-size of 0.001 cm. Partial specific volumes and solution density were calculate using the Sednterp program. Data were analyzed using the WinNONOLIN program from the Analytical Ultracentrifugation Facility at the University of Connecticut (Storrs, Conn.).

Protein | cleavage of procaspase-3 (C163A) by caspase-9, SDS-PAGE [1] | cleavage of procaspase-3 (C163A) by caspase-9, SDS-PAGE [2] | cleavage of procaspase-3 (C163A) by caspase-9, SDS-PAGE [3] | cleavage of procaspase-3 (C163A) by caspase-9, SDS-PAGE [4] | cleavage of procaspase-3 (C163A) by caspase-9, SDS-PAGE [5] | binding result [6]
B1 | incubation with the WT BIR3 protein (residues 252-350) resulted in the efficient inhibition of the activity (lane 2) | led to loss of this inhibition as judged by the cleavage of procaspase-3 precursor | led to loss of this inhibition as judged by the cleavage of procaspase-3 precursor | led to loss of this inhibition as judged by the cleavage of procaspase-3 precursor | led to loss of this inhibition as judged by the cleavage of procaspase-3 precursor | 
B2 |  |  |  |  |  | no binding (tested: 20 µM)
